Several values for one entry are separate records, joined by “and”; a condition that tells them apart may be missing. Equal entries are not always repeated. Where two headings read alike, the source gives them in different places. Ends that are not written are not given here.
Tests used:
[1] = biological target: chemokine receptors on THP-1 cells; assay: cell-based or functional assay
[2] = biological target: T1, Duffy Antigen Receptor for Chemokines (DARC) (human) (UniProt Q16570); assay: estimated ka for binding to red blood cells divided by inhibitory ED50 (THP-1 migration)
T1 sequence (looked up): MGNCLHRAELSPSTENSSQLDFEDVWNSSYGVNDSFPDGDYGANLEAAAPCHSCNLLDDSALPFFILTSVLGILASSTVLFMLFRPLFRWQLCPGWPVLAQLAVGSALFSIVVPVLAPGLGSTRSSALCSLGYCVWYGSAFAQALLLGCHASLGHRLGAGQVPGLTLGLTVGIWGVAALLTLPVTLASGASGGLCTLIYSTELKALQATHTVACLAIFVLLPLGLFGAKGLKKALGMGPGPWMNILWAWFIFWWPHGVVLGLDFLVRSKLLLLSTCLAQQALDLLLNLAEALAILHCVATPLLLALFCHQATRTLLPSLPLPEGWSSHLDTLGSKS

[3] = biological target: chemokine receptors on THP-1 cells; assay: binding to chemokine receptors on THP-1 cells; given as 'association constant'
[4] = biological target: T1, Duffy Antigen Receptor for Chemokines (DARC) (human); assay: DARC binding; given as 'affinity constant'
[5] = biological target: T2, Duffy Antigen Receptor for Chemokines (DARC) (human), Q16570; assay: estimated ka for binding to red blood cells divided by average inhibitory ED50 (THP-1 migration); details: remark: other sources report otherwise
T2 chain: T1 sequence (looked up)

[6] = biological target: chemokine receptors on THP-1 cells; assay: cell-based or functional assay; remark: listed apart in the source
[7] = biological target: T3, Duffy Antigen Receptor for Chemokines (DARC) (human, UniProt Q16570 1-336); assay: ka for binding to red blood cells divided by ka for binding to THP-1 cells
T3 construct: whole, on cells
T3 sequence (looked up): T1 sequence (looked up)

[8] = biological target: T3, Duffy Antigen Receptor for Chemokines …; assay: competition binding analysis using red blood cells
Description: (§1) To overcome this difficulty, the ka for association of DARC with peptide 3(1–12)[MCP-1] (SEQ ID NO:1) and peptide 2(1–15)[MCP-1] […] After binding has reached equilibrium (30 minutes at 37° C.), the cells are separated from the unbound label by centrifugation for 5 minutes through a sucrose gradient. Counts associated with the cells are then determined by gamma-counting scintigraphy. […] Furthermore, Scatchard analysis confirms the presence of a single high affinity binding site with 500–1000 copies per cell, consistent with the known properties of DARC.

[9] = biological target: chemokine receptors on THP-1 cells; assay: estimated ka for binding to THP-1 cells (competition binding analysis), printed under 'AVERAGE ED50 (µM)'
[10] = biological target: T4, Duffy Antigen Receptor for Chemokines (DARC) (human, UniProt Q16570 1-336); assay: DARC binding
T4 chain: T1 sequence (looked up)

[11] = biological target: T3, Duffy Antigen Receptor for Chemokines …; assay: Duffy binding
Description: as §1

[12] = biological target: T3, Duffy Antigen Receptor for Chemokines …; assay: DARC binding
Description: as §1

[13] = biological target: T1, Duffy Antigen Receptor for Chemokines (DARC) (human); assay: estimated ka for binding to red blood cells divided by average inhibitory ED50 (THP-1 migration)
[14] = biological target: T1, Duffy Antigen Receptor for Chemokines (DARC) (human); assay: ka for red blood cells divided by ED50
[15] = biological target: chemokine receptors on THP-1 cells; assay: cell-based or functional assay; remark: listed apart in the source
[16] = biological target: chemokine receptors on THP-1 cells; assay: biotinylated derivative mixed with THP-1 cells
[17] = biological target: chemokine receptors on the surface of Jurkat cells; assay: biotinylated peptide binding to Jurkat cells
[18] = biological target: T3, Duffy Antigen Receptor for Chemokines …; assay: DARC binding on red blood cells
Description: as §1

Molecule Peptide 3(7-9)[MCP-1], i.e, KQK has a % inhibition of migration induced by MCP-1 at 100 µM tripeptide [1] of 95%, a % inhibition of migration induced by SDF1α at 100 µM tripeptide [1] of 29% and an ED50 as inhibitor of MCP-1 induced THP-1 migration [1] of 2 to 5 µM. It also gave an ED50 for inhibition of THP-1 migration induced by the one chemokine it is specific for (MCP-1) [1] of 6 µM, an ED50 for inhibition of THP-1 migration versus MCP1 [1] of 7 µM and a Duffy selectivity [2] of 22.3. For the same molecule, the Kd [3] was 0.5 µM and 1 µM and the Kd [4] was 15 µM.

EICADPKQKWVQ [peptide 3(1-12)[MCP-1]] was tested, and the Duffy selectivity [5] was 1, the % inhibition of THP-1 migration at 100 µM versus IL8 [6] was 103% and the % inhibition of THP-1 migration at 100 µM versus MCP-1 [6] was 112%. For the same molecule, the % inhibition of THP-1 migration at 100 µM versus MIP1α [6] was 99%, the % inhibition of THP-1 migration at 100 µM versus SDF-1α [6] was 107% and the ED50 for inhibition of THP-1 migration versus IL8 [6] was 14 µM. For the same molecule, the ED50 for inhibition of THP-1 migration versus MCP-1 [6] was 8 µM, the ED50 for inhibition of THP-1 migration versus MIP1α [6] was 8 µM and the ED50 for inhibition of THP-1 migration versus SDF-1α [6] was 10 µM. For the same molecule, the average ED50 for inhibition of THP-1 migration induced by each of the chemokines [6] was 10 µM, the inhibition of MCP-1 induced THP-1 migration at 100 µM, peptide incubated with the cells [6] was > 99% and the inhibition of MCP-1 induced THP-1 migration at 100 µM, peptide incubated with the chemokine [6] was 17%.

B1: peptide 2(1-15)[MCP-1] (peptide)
peptide: SYRRITSSKCPKEAV
notes: synthetic linear L-form peptide; also called Pep2[MCP1]; Pep2(1-15)[MCP1]
For B1, the Duffy selectivity [7] was 0.18 ratio, the Kd [8] was < 0.5 µM and the ED50 for inhibition of chemokine-induced THP-1 migration [6] was > 100 µM. For the same molecule, the inhibition of chemokine-induced THP-1 migration at 100 µM [6] was 19%, the promotion of THP-1 migration (agonist activity) [6] was 10 µM and the Kd [9] was 2 µM. The Kd [10] was 0.35 µM and the Kd [11] was 100 µM.

SYRRITSSKSPKEAV [Ser10 variant of peptide 2(1-15)[MCP-1]] showed a Kd [12] of 20 to 100 µM.

For WVQ [Peptide 3(10-12)[MCP-1], i.e., WVQ], the Duffy selectivity [13] was 24.8, the Duffy selectivity [14] was 10 and the Kd [4] was 2 µM. The ED50 for inhibition of THP-1 migration versus IL8 [15] was < 1 µM, the ED50 for inhibition of THP-1 migration versus MCP1 [15] was 8 µM and the ED50 for inhibition of THP-1 migration versus MIP1α [15] was < 1 µM. For the same molecule, the ED50 for inhibition of THP-1 migration versus SDF1α [15] was < 1 µM, the ED50 for inhibition of migration induced by IL-8 [15] was 1 µM and the ED50 for inhibition of migration induced by MCP-1 [15] was 8 µM. For the same molecule, the ED50 for inhibition of migration induced by MIP1α [15] was 7.5 µM, the ED50 for inhibition of migration induced by RANTES [15] was 1.5 µM and the ED50 for inhibition of migration induced by SDF1α [15] was 2 µM. The average ED50 for inhibition of THP-1 migration induced by each of the chemokines [15] was 2 µM.

In the case of SYRRITSSKCPKEAV (also: biotinylated, position not given here) [biotinylated peptide 2(1-15)[MCP-1]], the Kd [16] is reported as 1.9 µM and the Kd [17] is reported as 3 µM.

Work on SYRRITSSK [Peptide 2(1-9)[MCP-1]] yielded a Kd [18] of ~50 µM.
